Results taken from publication doi:10.1101/645523.

Tests used:
Assay in all cases: cryo-EM structure
[1] = molecular target: Capsid associated protein P30 of bacteriophage PR772 (bacteriophage PR772)
[2] = molecular target: Host-recognition protein P5 of bacteriophage PR772 (bacteriophage PR772)
[3] = molecular target: Major capsid protein P3 of bacteriophage PR772 (bacteriophage PR772)

Capsid associated protein P30 of bacteriophage PR772 (natural protein)
stoichiometry N [1]: 2

Host-recognition protein P5 of bacteriophage PR772 (natural protein)
stoichiometry N [2]: 3

Major capsid protein P3 of bacteriophage PR772 (natural protein)
stoichiometry N [3]: 3
